“Also recorded” adds a separate entry of the source.
Experiments:
[1] = test system: At3g22270 and At4g37640 transcripts; experiment: Elicitor-induced At3g22270 and At4g37640 expression, semi-quantitative PCR, Arabidopsis Col-0 / Col-0 efr; assay type: cell-based, Arabidopsis thaliana; details: transgenic Col-0 efr plants
Description: (A) Induction of ethylene biosynthesis in agroinfiltrated tobacco explants expressing EFR, WAK1, WEG and EWAK. […] Agroinfiltrated leaf tissues expressing EFR or WEG and elicited with OGs or elfl8 respectively, represented our negative control. Values are means±s.e.m. (N=3). (B) Elicitor-induced gene expression in untransformed Col-0 and Col-0 efr plants, and in transgenic Arabidopsis Col-0 efr plants stably expressing WEG. Accumulation of At3g22270 and At4g37640 transcripts was analysed by semi-quantitative PCR, using the UBQ5 gene for normalization. Adult leaves were syringe-infiltrated with water, OGs (25 μg/ml) or elfl8 (10 μM) for 3 h. The experiment was repeated three times with similar results. The same experiment was performed in a second independent transgenic line expressing WEG with similar results.
The ability of WEG to activate downstream responses upon stimulation with OGs was analysed in agroinfiltrated tobacco.

[2] = test system: Pectobacterium carotovorum subsp. carotovorum; experiment: Infection assay with Pectobacterium carotovorum on transgenic Arabidopsis leaves; assay type: in vivo; details: transgenic Arabidopsis vs Col-0 or Col-0 efr, 24 h, 5×10^7 CFU/ml
Description: Inoculum concentration was 5×10^7 CFU/ml). Values are means±SE of at least 16 lesions. Asterisks indicate statistically significant differences against control plants (Col-0 or Col-0 efr), according to Student's t test (*, p<0.0005).
Agrobacterium tumefaciens GV3101 strain infections was performed as described in Katagiri et al., (2002) and using a concentration of Agrobacterium corresponding at an OD600 of 1.0 in 10 mM MgCl2 and 600 μM acetosyringone. After 24 h of infiltration, serial dilution of Agrobacterium colonies were deposited on LB agar supplemented with gentamycin and rifampicin and grown for 2-3 days at 28° C. in the dark. At least 5 independent plants and 3 different leaves by plant, were used per experiment. Pectobacterium carotovorum subsp. carotovorum infections Pectobacterium carotovorum subsp. carotovorum (formely Erwinia carotovora; Gardan et al., 2003) (strain DMSZ 30169) was obtained from DSMZ GmbH (Germany). A liquid colture using 10 ml LB medium was prepared. […]
For infection, fully developed leaves of 4 week old Arabidopsis plants were detached and placed in 0.8% agar Petri dishes. […] Symptoms were scored measuring the area of macerated tissue after 24 hour post inoculation at 22° C. and 12 h photoperiod. Area was measured by ImageJ software. […]

B1: WEG: chimeric receptor: WAK1 ectodomain fused to the TM-iJM-kinase portion of EFR, GFP-fused (protein)
chain: QHQPGENCQNKCGNITIEYPFGISSGCYYPGNESFSITCKEDRPHVLSDIEVANFNHSGQLQVLLNRSSTCYDEQGKKTEEDSSFTLENLSLSANNKLTAVGCNALSLLDTFGMQNYSTACLSLCDSPPEADGECNGRGCCRVDVSAPLDSYTFETTSGRIKHMTSFHDFSPCTYAFLVEDDKFNFSSTEDLLNLRNVMRFPVLLDWSVGNQTCEQVGSTSICGGNSTCLDSTPRNGYICRCNEGFDGNPYLSAGCQDVNECTTSSTIHRHNCSDPKTCRNKVGGFYCKCQSGYRLDTTTMSCKRKEVVSGICIGIASLLLIIIVASLCWFMKRKKKNNASDGNPSDSTTLGMFHEKVSYEELHSATSRFSSTNLIGSGNFGNVFKGLLGPENKLVAVKVLNLLKHGATKSFMAECETFKGIRHRNLVKLITVCSSLDSEGNDFRALVYEFMPKGSLDMWLQLEDLERVNDHSRSLTPAEKLNIAIDVASALEYLHVHCHDPVAHCDIKPSNILLDDDLTAHVSDFGLAQLLYKYDRESFLNQFSSAGVRGTIGYAAPEYGMGGQPSIQGDVYSFGILLLEMFSGKKPTDESFAGDYNLHSYTKSILSGCTSSGGSNAIDEGLRLVLQVGIKCSEEYPRDRMRTDEAVRELISIRSKFFSSKTTITESPRDAPQSSPQEWMLNTDMHTM
modifications: left off: large carriers
[1]; 3 h
  induction of At3g22270 and At4g37640 by other elicitors: not by other elicitors
[1]; OGs 25 μg/ml, 3 h
  induction of At3g22270 and At4g37640 by OGs: induced by OGs
[1]; water controls
  constitutive activation of At3g22270 and At4g37640 expression: No constitutive activation
[2]
  resistance to Pectobacterium carotovorum subsp. carotovorum: increased resistance; also recorded: confers resistance
